# T1: his-tagged FtsA protein (Streptococcus suis, UniProt A0A0H3MTL7 1-459)
# T1 chain: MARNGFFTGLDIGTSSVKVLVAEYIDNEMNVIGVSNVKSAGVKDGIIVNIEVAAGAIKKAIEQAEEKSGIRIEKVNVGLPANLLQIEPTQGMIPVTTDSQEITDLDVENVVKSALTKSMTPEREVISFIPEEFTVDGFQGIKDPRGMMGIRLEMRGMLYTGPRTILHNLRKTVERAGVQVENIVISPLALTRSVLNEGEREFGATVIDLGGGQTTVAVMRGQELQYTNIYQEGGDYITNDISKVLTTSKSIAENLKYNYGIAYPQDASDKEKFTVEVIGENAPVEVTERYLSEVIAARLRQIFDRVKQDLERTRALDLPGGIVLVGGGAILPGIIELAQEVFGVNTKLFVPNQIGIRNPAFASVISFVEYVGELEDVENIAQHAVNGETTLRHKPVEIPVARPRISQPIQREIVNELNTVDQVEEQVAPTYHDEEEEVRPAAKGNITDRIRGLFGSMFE
# T2: his-tagged FtsA protein (Streptococcus suis, UniProt A0A0H3MTL7 1-459)
# T2 construct: FtsA of Streptococcus suis, locus SSU05_0480; It was purified 'in the same way but without the SUMO cleavage step'; source: E. coli BL21 (DE3), pET28a, purified (Ni-NTA)
# T2 sequence (looked up): T1 chain
# B1: cytoplasmic region of EzrA protein of S. suis (domain or fragment, Streptococcus suis, UniProt A4VWI6 27-574, looked up)
# chain: RKRNDNLLVALEERKEELFNLPVNEEVETVKALHLIGQSQVSFREWNQKWVDLSLNSFADIENHIFEAEGYNNAFRFVSAKNAIDSIDSQIDLIEEDIASIRQGLMELKEQEEKNSGRVKHALNLFDSLQEAVRENPDSYGETLSELEKQLKNIEVEFSEFVMLNSSGDPIEASEILDKTEEHMIALNQIMDRIPSLIERVTKDFPEQLEDLESGYRKLVEQNYLFTEANIESQFQNIRVSIRENTALIVSFDLDAAEAENEGIQAKIDHLYKVFNREIEANKEAVKISKNLPKFLEHVVQNTQLLDEESQRLNATYLLADSKLSRINQLKARLESIEIVVTESVEDIENPQVAYSILEERLDHSLASLKEIEEEQLVLADYLKSQELSENTARKKATLYINKLHTLKRYMEKRNLPGIPAEFLTNFFRTSDHVEALIAELDYKRINIEVVNRLLENATYDMNQLEELAYLIVQNATLTEQLLQYSNRYRSFDESVQKAFNRSLSIFEKDFDYQAAFEEISFALETVEPGVTERFVRSYEKTREAIRY
# notes: EzrA of Streptococcus suis, locus SSU05_1509, cytoplasmic region; also called EzrA_(cyto); source: E. coli BL21 (DE3), pET28a, purified (Ni-NTA, SUMO protease cleavage); not shown: His-SUMO, C-terminal, cleaved
# How the values were obtained:
# [1] = target: FtsA of B. subtilis, bacterial two-hybrid fusion (UniProt P28264); test: bacterial two-hybrid, β-galactosidase activity; conditions: cultured at 30°C for 16 h; parent: est. 270; read off a plot
# Chain of FtsA of B. subtilis, bacterial two-hybrid fusion (P28264 whole entry, the tested form may be a part): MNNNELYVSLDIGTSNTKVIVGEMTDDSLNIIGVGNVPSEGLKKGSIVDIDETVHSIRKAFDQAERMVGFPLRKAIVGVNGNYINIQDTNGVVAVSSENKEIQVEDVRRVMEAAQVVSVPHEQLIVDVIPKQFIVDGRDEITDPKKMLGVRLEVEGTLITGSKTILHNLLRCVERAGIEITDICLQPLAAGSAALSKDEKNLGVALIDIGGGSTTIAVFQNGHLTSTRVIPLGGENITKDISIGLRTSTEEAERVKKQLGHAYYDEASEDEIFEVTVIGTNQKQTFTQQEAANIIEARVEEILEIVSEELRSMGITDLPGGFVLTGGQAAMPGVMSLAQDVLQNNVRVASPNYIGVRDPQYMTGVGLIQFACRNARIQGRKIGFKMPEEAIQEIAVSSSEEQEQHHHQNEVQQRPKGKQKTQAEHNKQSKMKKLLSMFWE
# [2] = target: FtsA of S. pneumoniae, bacterial two-hybrid fusion (UniProt A0A0H2ZPT5); test: bacterial two-hybrid, β-galactosidase activity; conditions: cultured at 30°C for 16 h; parent: est. 110; read off a plot
# Chain of FtsA of S. pneumoniae, bacterial two-hybrid fusion (A0A0H2ZPT5 whole entry, the tested form may be a part): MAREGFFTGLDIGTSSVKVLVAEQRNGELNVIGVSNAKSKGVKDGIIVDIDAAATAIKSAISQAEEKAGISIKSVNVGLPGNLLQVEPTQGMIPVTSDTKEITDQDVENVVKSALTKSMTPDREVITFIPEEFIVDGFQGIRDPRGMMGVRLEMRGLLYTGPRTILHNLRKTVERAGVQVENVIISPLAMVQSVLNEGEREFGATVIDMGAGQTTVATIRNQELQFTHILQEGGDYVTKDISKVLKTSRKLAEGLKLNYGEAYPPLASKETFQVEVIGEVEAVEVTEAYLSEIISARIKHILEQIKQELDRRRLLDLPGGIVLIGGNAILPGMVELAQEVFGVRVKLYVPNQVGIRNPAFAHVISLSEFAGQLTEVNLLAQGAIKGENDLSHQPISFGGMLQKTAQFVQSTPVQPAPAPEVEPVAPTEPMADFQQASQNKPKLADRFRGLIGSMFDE
# [3] = target: FtsA of S. suis, bacterial two-hybrid fusion (UniProt A0A0H3MTL7); test: bacterial two-hybrid, β-galactosidase activity; conditions: cultured at 30°C for 16 h; parent: est. 300; read off a plot
# [4] = target: FtsA of E. faecalis, bacterial two-hybrid fusion (UniProt O07111); test: bacterial two-hybrid, β-galactosidase activity; conditions: cultured at 30°C for 16 h; parent: est. 42; read off a plot
# Chain of FtsA of E. faecalis, bacterial two-hybrid fusion (O07111 whole entry, the tested form may be a part): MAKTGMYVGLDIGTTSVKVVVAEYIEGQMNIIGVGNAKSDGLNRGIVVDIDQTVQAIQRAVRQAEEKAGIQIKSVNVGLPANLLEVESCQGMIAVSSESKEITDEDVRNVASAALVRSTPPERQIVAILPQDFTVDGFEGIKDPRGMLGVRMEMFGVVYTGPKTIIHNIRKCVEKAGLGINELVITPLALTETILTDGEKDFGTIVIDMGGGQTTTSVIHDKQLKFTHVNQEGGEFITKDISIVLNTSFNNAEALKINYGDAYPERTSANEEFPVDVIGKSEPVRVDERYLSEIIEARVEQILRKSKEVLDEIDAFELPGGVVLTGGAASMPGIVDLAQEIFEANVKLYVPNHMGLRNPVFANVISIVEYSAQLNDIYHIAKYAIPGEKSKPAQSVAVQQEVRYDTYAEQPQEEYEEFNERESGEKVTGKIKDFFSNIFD
# [5] = target: T1, his-tagged FtsA protein; test: SPR; kinetic fit
# [6] = target: T2, his-tagged FtsA protein; test: SPR; Biacore T200; FtsA covalently immobilised on a CM5 chip (700 RU); EzrA_(cyto) or its variant injected at 200 to 3.125 µM in twofold dilutions, 30 µL/min, 25°C; equilibrium response fitted to a 1:1 binding model; conditions: both partners purified
# [7] = target: T1, his-tagged FtsA protein; test: SPR; equilibrium (steady-state) fit
molecule,measurement,setting,value
"EzrA of B. subtilis, bacterial two-hybrid fusion (from UniProt O34894) QND",response,[1],38 rel.U
"EzrA of S. pneumoniae, bacterial two-hybrid fusion R515D",response,[2],21 rel.U
"EzrA of S. suis, bacterial two-hybrid fusion R514D",response,[3],50 rel.U
"EzrA of Enterococcus faecalis, bacterial two-hybrid fusion (from UniProt Q838R5) QND",response,[4],25 rel.U
B1,Kd,[5],1.91 nM
same,fold binding affinity against EzrA^R514D,[6],≥ 10 fold
same,Kd,[7],37.2 nM

# — publication PMC12288466, “EzrA promotes Z-ring formation through interaction of its QNR motif with FtsA” (Journal of Bacteriology, 2025)
